The source of these data is publication PMC1976250 (Journal of neurochemistry, 2007).

Experiment [1] addresses GST-PICK1 (protein interacting with C-kinase 1) (UniProt Q9EP80 1-416). Briefly: pull-down.
Experiment [2] has as its target T1, GST-GluR2 C-terminus (GST-R2C) (UniProt P19491 834-883).
T1 chain (looked up): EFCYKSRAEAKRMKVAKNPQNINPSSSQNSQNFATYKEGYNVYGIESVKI
Briefly: pull-down.

Chain of GST-PICK1 (protein interacting with C-kinase 1) (Q9EP80 whole entry): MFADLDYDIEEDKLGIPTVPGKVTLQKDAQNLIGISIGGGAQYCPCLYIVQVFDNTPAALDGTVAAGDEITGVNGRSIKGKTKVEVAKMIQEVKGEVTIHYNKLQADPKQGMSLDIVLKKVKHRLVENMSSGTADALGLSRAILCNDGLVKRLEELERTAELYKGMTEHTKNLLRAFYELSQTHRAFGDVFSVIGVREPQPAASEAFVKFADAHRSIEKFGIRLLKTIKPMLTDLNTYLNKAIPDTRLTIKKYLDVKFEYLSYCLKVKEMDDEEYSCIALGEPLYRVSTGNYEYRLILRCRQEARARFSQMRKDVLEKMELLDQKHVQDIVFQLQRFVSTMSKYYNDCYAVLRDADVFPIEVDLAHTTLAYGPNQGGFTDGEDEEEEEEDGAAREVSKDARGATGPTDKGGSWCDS

B1: his6β-SNAP (β soluble NSF attachment protein) (natural protein, UniProt P81126 1-298, looked up)
chain: MDNAGKEREAVQLMAEAEKRVKASHSFLRGLFGGNTRIEEACEMYTRAANMFKMAKNWSAAGNAFCQAAKLHMQLQSKHDSATSFVDAGNAYKKADPQEAINCLNAAIDIYTDMGRFTIAAKHHITIAEIYETELVDIEKAIAHYEQSADYYKGEESNSSANKCLLKVAAYAAQLEQYQKAIEIFEQIGANTMDNPLLKYSAKDYFFKAALCHFIVDELNAKLALEKYEEMFPAFTDSRECKLLKKLLEAHEEQNSEAYTEAVKEFDSISRLDQWLTTMLLRIKKSIQGDGEGDGDLK
Regarding B1, the “fold increase in binding at 15 μmol/L free Ca2+ compared with zero free Ca2+” value in experiment [1] was about 7 fold.

B2: his6D142A NSF (enzyme, UniProt P18708 1-744, looked up)
chain: MAGRSMQAARCPTDELSLSNCAVVSEKDYQSGQHVIVRTSPNHKYIFTLRTHPSVVPGSVAFSLPQRKWAGLSIGQEIEVALYSFDKAKQCIGTMTIEIDFLQKKNIDSNPYDTDKMAAEFIQQFNNQAFSVGQQLVFSFNAKLFGLLVKDIEAMDPSILKGEPASGKRQKIEVGLVVGNSQVAFEKAENSSLNLIGKAKTKENRQSIINPDWNFEKMGIGGLDKEFSDIFRRAFASRVFPPEIVEQMGCKHVKGILLYGPPGCGKTLLARQIGKMLNAREPKVVNGPEILNKYVGESEANIRKLFADAEEEQRRLGANSGLHIIIFDEIDAICKQRGSMAGSTGVHDTVVNQLLSKIDGVEQLNNILVIGMTNRPDLIDEALLRPGRLEVKMEIGLPDEKGRLQILHIHTARMRGHQLLSADVDIKELAVETKNFSGAELEGLVRAAQSTAMNRHIKASTKVEVDMEKAESLQVTRGDFLASLENDIKPAFGTNQEDYASYIMNGIIKWGDPVTRVLDDGELLVQQTKNSDRTPLVSVLLEGPPHSGKTALAAKIAEESNFPFIKICSPDKMIGFSETAKCQAMKKIFDDAYKSQLSCVVVDDIERLLDYVPIGPRFSNLVLQALLVLLKKAPPQGRKLLIIGTTSRKDVLQEMEMLNAFSTTIHVPNIATGEQLLEALELLGNFKDKERTTIAQQVKGKKVWIGIKKLLMLIEMSLQMDPEYRVRKFLALLREEGASPLDFD
In the case of B2, the “binding at 15 μmol/L free Ca2+ relative to zero free Ca2+” value in experiment [2] came to 85%.
